Data published in publication PMC8881100, “Biochemical and Molecular Dynamics Study of a Novel GH 43 α-L-Arabinofuranosidase/β-Xylosidase From Caldicellulosiruptor saccharolyticus DSM8903” (Frontiers in Bioengineering and Biotechnology, 2022).

Substrate: O=[N+]([O-])c1ccc(O[C@@H]2O[C@@H](CO)[C@H](O)[C@H]2O)cc1
Test: purified protein
Assay type: biochemical, Caldicellulosiruptor saccharolyticus
Conditions: citric acid phosphate buffer pH 6, 70°C, 0.5 to 3.5 mM substrate

B1: CAX43 (GH43 α-L-arabinofuranosidase/β-xylosidase) (Caldicellulosiruptor saccharolyticus DSM 8903) (protein)
chain: MIPTLWDPNVDEERYKNPIIHADYSDPDVIRVGSDYFLVASSFNCVPGLPILHSRDLINWKIVNYAVERLPSPEYDTPQIGKGIWAPAIRYHEEKFYIYFSMPDDGIYVCYTDDPFGKWSDIHLVKAAKGWIDPCPFWDEDGNAYLVNAFAKSRIGFNSKLCVSRLSADGLRVLDEGKIVFDGAKTQPTIEGPKLYKRNGYYYIFAPAGGVKFGWQTVLRSKDIYGPYEEKIVLHQGKTKINGPHQGAWVETEKGEHWFVHFQDRGPYGRVVHLQPMRWEDNWPVIGVDIDGDGIGEPVEEYRKPNTNYKNEYDFYLECSDHFDKPQISLQWQWHANPQDNWYSLEKRKSYLRLYAVGNLTNNNKVKSIFFMPNLLLQKIPAPEFIAIVKLEVNFNKEGSYAGIIMSGSRYSSIGIKRGQKKLSLVQVLGDVKEDVIENTVAKMPIETSQVFLKISVKEGAVCKFSFSFDGKKFTDFGTEFIPQEAIWVGSKIGLFCINTSGKNGVIQSDYADFDYFKIENFRKEDEC
notes: C-terminal His6 tag; pEASY blunt E2, E. coli BL21 (C43); Ni-NTA purified
Km: 1071 µM | kcat: 234.674 s⁻¹
